How the values were obtained:
[1] = target: AQP4-IgG (rAb-53) with the Fc mutation D270A (human); experiment: BLI; Octet K2, 30°C; antibody (6 µg/ml) loaded on anti-human Fab-CH1 biosensors; mouse FcRn-b2m in solution, 2,000 to 0 nM; 100 mM sodium phosphate, 150 mM NaCl, 0.05% Tween-20, pH 6; 60 s association, 60 s dissociation
[2] = target: AQP4-IgG (rAb-53) with the Fc mutation K322A (human); experiment: as above
[3] = target: isotype control antibody directed against measles virus (2B4-IgG) (human); experiment: as above
[4] = target: AQP4-IgG (rAb-53) with the Fc mutation N297D (human); experiment: as above
Chain of AQP4-IgG (rAb-53) with the Fc mutation N297D (human) (heavy, as listed by the source, chain 1 of 2): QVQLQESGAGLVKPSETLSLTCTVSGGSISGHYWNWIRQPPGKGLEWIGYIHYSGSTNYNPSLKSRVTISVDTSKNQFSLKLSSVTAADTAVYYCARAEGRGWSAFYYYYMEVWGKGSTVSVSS
Chain of AQP4-IgG (rAb-53) with the Fc mutation N297D (human) (light, as listed by the source, chain 2 of 2): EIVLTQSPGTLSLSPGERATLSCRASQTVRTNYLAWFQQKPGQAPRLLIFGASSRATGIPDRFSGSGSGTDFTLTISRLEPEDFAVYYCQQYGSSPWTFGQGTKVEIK

[5] = target: AQP4-IgG (rAb-53) with the Fc mutation P329A (human); experiment: as above
Chain of AQP4-IgG (rAb-53) with the Fc mutation P329A (human) (heavy, as listed by the source, chain 1 of 2): as the sequence (heavy, as listed by the source, chain 1 of 2) above
Chain of AQP4-IgG (rAb-53) with the Fc mutation P329A (human) (light, as listed by the source, chain 2 of 2): as the sequence (light, as listed by the source, chain 2 of 2) above

[6] = target: human monoclonal AQP4-IgG (rAb-53), wild type (human); experiment: as above
Chain of human monoclonal AQP4-IgG (rAb-53), wild type (human) (heavy, as listed by the source, chain 1 of 2): as the sequence (heavy, as listed by the source, chain 1 of 2) above
Chain of human monoclonal AQP4-IgG (rAb-53), wild type (human) (light, as listed by the source, chain 2 of 2): as the sequence (light, as listed by the source, chain 2 of 2) above

[7] = target: AQP4-IgG (rAb-53) with the Fc mutation P331G (human); experiment: as above
Chain of AQP4-IgG (rAb-53) with the Fc mutation P331G (human) (heavy, as listed by the source, chain 1 of 2): as the sequence (heavy, as listed by the source, chain 1 of 2) above
Chain of AQP4-IgG (rAb-53) with the Fc mutation P331G (human) (light, as listed by the source, chain 2 of 2): as the sequence (light, as listed by the source, chain 2 of 2) above

[8] = target: AQP4-IgG (rAb-53) with the Fc mutation K322A (human); experiment: BLI; Octet K2, 30°C; antibody (6 µg/ml) loaded on anti-human Fab-CH1 biosensors; mouse FcRn-b2m in solution; PBS pH 7.2 for dilution, association and dissociation
[9] = target: AQP4-IgG (rAb-53) with the Fc mutation N297D (human); experiment: as above
[10] = target: AQP4-IgG (rAb-53) with the Fc mutation P331G (human); experiment: as above

Chain of AQP4-IgG (rAb-53) with the Fc mutation K322A (human) (heavy, as listed by the source, chain 1 of 2): as the sequence (heavy, as listed by the source, chain 1 of 2) above
Chain of AQP4-IgG (rAb-53) with the Fc mutation K322A (human) (light, as listed by the source, chain 2 of 2): as the sequence (light, as listed by the source, chain 2 of 2) above
Chain of AQP4-IgG (rAb-53) with the Fc mutation D270A (human) (heavy, as listed by the source, chain 1 of 2): as the sequence (heavy, as listed by the source, chain 1 of 2) above
Chain of AQP4-IgG (rAb-53) with the Fc mutation D270A (human) (light, as listed by the source, chain 2 of 2): as the sequence (light, as listed by the source, chain 2 of 2) above

## mouse FcRn-Beta-2 microglobulin heterodimer protein (from UniProt Q61559 22-297; P01887 21-119) (complex)
[1]
  Req: 0.43
[2]
  Req: 0.987
[3]
  Req: 0.76
[4]
  Req: 1
[5]
  Req: 1.16
[6]
  Req: 0.851
[7]
  Req: 0.915
[8]
  Req: 0.198
[9]
  Req: 0.136
[10]
  Req: 0.151

— publication PMC6053506
